The text below walks through data of the nanobody polyreactivity screen of Harvey et al. (2022).

A short description of this series: yeast display, Sf9 membrane polyspecificity reagent, FACS + sequencing; frameworks hold sequencing errors. A digest of the protocol:
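Nanobodies from a synthetic yeast display library (Saccharomyces cerevisiae BJ5465), induced 36–48 hours with galactose, were stained 1 hour at 4 °C with 10% biotinylated, detergent-solubilized Sf9 membrane reagent, enriched on streptavidin microbeads, then FACS-sorted. Anti-HA (expression) and streptavidin (reagent binding) fluorescence set low and high (top ~1%) gates. Polyreactivity labels come from the gate of origin. Genes were colony-PCR amplified, MiSeq 2 × 250 sequenced and filtered by CDR length.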
Turning to “QVQLVESGGGLVQAGGSLRLSCAASGYIFRYYAMGWYREAPGKERELVARINSGGSTYADSVKGRFTISRDNAKNTVYLQMNSLKPEDTAVYYCAADLAKYRSKLGYWGQVTQVTVSS”, the “polyreactivity (PSR sort gate)” value was “high polyreactivity”.
Turning to “QVQLVESGGGLVQAGGSLRLSCAASGYIFRYYAMGWYRQAPGKERELVAAISRSGGNTYYADSVKGRFTISRDNAKNTVYLQMNSLKPEDTAVYYCAVVLSTYSYADYDYWGQGTQVTVSS”, the “polyreactivity (PSR sort gate)” value is reported as “high polyreactivity”.
Regarding “QVQLVESGGGLVQAGGSLRLSCAASGYIFSDNTMGWYRQAPGKERELVAVITSGTSTSYADSVKGRFTISRDNAKNTVYLQMNSLKPEDTAVYYAARTGQYKTYGEYDYWGQGTQVTVSS”, the “polyreactivity (PSR sort gate)” value is “low polyreactivity”.
On to “QVQLVESGGGLVQAGGSLRLSCAASGYIFSYNAMGWYRQAPGKERELVAAMTASGGGTYYADSVKGRFTISRDNAKNTVYLQMNSLKPEDTAVYYCAADFNDHYYWYGQDYDYWGQGTQVTVSS”, for which the “polyreactivity (PSR sort gate)” value was “low polyreactivity”.
As to “QVQLVESGGGLVQAGGSLRLSCAASGYIFSYYAMGWYRQAPGKERELVAAINRSGGRTYYADSVKGRFTISRDNAKNTVYLQMNSLKPEDTAVYYCAADQLSDEYDYWGQGTQVTVSS”, the “polyreactivity (PSR sort gate)” value is “high polyreactivity”.
The result for “QVQLVESGGGLVQAGGSLRLSCAASGYIFSYYTMGLYRQAPGKERELVASNRWGGGRTYYADSVKGRFTISRDNAKNTVYLQMNSLKPEDTAVYYCNVKSSRLLDVGRMEYWGQGTQVTVSS” reads “high polyreactivity”; that for “QVQLVESGGGLVQAGGSLRLSCAASGYIFSYYTMGWYRQAPGKERELVAAISYSGGSTDYADSVKGRFTISRDNAKNTVYLQMNSLKPEDTAVYYCNADYSFWAKPYWEYGYDYWGQGTQVTVSS”, “low polyreactivity”.
Then “QVQLVESGGGLVQAGGSLRLSCAASGYIFVIYAMGWYRQAPGKERELVAAISWGGGSTYYADSVKGRFTISRDNAKNTVYLQMNSLKPEATAVYYCAARGWVVGRISVPGEYWGQGTQVTVSS”, with “high polyreactivity”.
Regarding “QVQLVESGGGLVQAGGSLRLSCAASGYIFVPYALGWYRQAPGKERELVASITGGGSTNYADSVKGRFTISRDNAKNTVYLQMNSLKPEDTAVYYCAAVLGGGEKGGRNRRFDSWGQGTQVTVSS”, the “polyreactivity (PSR sort gate)” value is given as “low polyreactivity”.
Consider “QVQLVESGGGLVQAGGSLRLSCAASGYIFVSYDMGWYRQAPGKERELVAAISWRGGSTYYADSVKGRFTISRDNAMNTVYLQMNSLKPEDTAVYYCAVDDWLDWLFADFGYWGQGTQVTVSS”, for which the “polyreactivity (PSR sort gate)” value is “low polyreactivity”.
Then “QVQLVESGGGLVQAGGSLRLSCAASGYIFVYNSMGWYRPAPGKERELVAVINYSGSSTYYADSVKGRFPISRDNAKNTVYLQMNSLKPEDTAVYYCNALRRESLEDEYWGQGTQVTVSS”, with “high polyreactivity”; and “QVQLVESGGGLVQAGGSLRLSCAASGYIFWENAMGWYRQAPGKERELVAAITVSGGGTYYADSVKGRFTISRDNAKNTVYLQMNSLKPEDTAVYYCAADEDNPWLWFYYWGQGTQVTVSS”, with “low polyreactivity”; and “QVQLVESGGGLVQAGGSLRLSCAASGYIFWSNTMGWYRQAPGKERELVAAISQSTASTYYADSVKGRFTISRDNAKNTVYLQMNSLKPEDTAVYYCAADDYIDGDDYWGQGTQVTVSS”, with “low polyreactivity”.
The result for “QVQLVESGGGLVQAGGSLRLSCAASGYIFYAYAMAWYRHAPGKESELVAAITDNGVSTFYADSVKGRFTISRDNAKNTVYLHMNSLIPEDTAVYYCATSSTHSRGDEYWGQGTQVAVSS” reads “low polyreactivity”; that for “QVQLVESGGGLVQAGGSLRLSCAASGYIFYDNAMGWYRQAPGKERELVAAISRSGSRTRYADSVKGRFTISRDNAKNTVYLQMNSLKPEDTAVYYCNTRYAKYYYWGQGTQVTVSS”, “high polyreactivity”.
The result for “QVQLVESGGGLVQAGGSLRLSCAASGYIFYFNAMGRYRQAPGKERELVAVISDRDDSTYYADSVKGRFTISRDNAKNTVYLQMNSLKPEDTAVYYCAADGDTYVDDPYDYWGQGTQVTVSS” reads “low polyreactivity”.
“QVQLVESGGGLVQAGGSLRLSCAASGYIFYFYAMGWYRQAPGKERELVAAISSSGGSTRYADSVKGRFTISRDNAKNTVYLQMNSLKPEDTAVYYCAASHWSGAAWYYYWGQGTQVTVSS”: the “polyreactivity (PSR sort gate)” value is “high polyreactivity”.
As to “QVQLVESGGGLVQAGGSLRLSCAASGYIFYGYAMGWYRQAPWKESEWVAAITVRGGSTYYADSVKGRFTISRDKAKNTVYLQKNSQKPEDTAVYYCAAAPQFTFGVGYWGQVTQVTVSS”, the “polyreactivity (PSR sort gate)” value is “low polyreactivity”.
Then “QVQLVESGGGLVQAGGSLRLSCAASGYIFYRNAMGWYRQAPGKEREFVAAISSSGVSTYYADSVKGRFTISRDTAKNTVYLQMNSLKPEDTAVYYCNTGYIFSSFYSSKYGYWGQGTQVTVSS”, with “low polyreactivity”; and “QVQLVESGGGLVQAGGSLRLSCAASGYIFYTYAMGWYRQAPGKERELVASIDSGGSTNYADSVKGRFTISRDNAKNTVYLQMNSLKPEDTAVYYCAADVIVRVYYYYYVLMDYWGQGTQVTVSS”, with “low polyreactivity”.
The result for “QVQLVESGGGLVQAGGSLRLSCAASGYIIARNAMGWYRQAPGKERELVAAIRSSGGSTYYADSVKGRFTISRDNAKNTVYLQMNSLKPEDTAVYYCAARILKRPKLYDYWGQGTQVTVSS” reads “high polyreactivity”; that for “QVQLVESGGGLVQAGGSLRLSCAASGYIIRRYSMVWYIQAPGKESEWVAVISSRGGSTYYADSVKGRFTISRDYAKNTVYLQMNSLKPEDTPVYYCAARSGSRATVLSDYWGQGTQVTVSS”, “high polyreactivity”.
The result for “QVQLVESGGGLVQAGGSLRLSCAASGYILDVYAMGWYRQAHGKEWELVAVITWRTDSTYYADSVKGRFTISRDNAKNTVYLQMNSLKPEDTAVYYCAKVLRLSKYRYYYWGQGTQVTVSS” reads “high polyreactivity”; that for “QVQLVESGGGLVQAGGSLRLSCAASGYILGRYAMGWYRQAPGKERELVAAITSGGSTYYADSVKGRFTISRDNAKNTVYLQMNSLKPEDTAVYYCNAFFATGVDYWGQGTQVTVSS”, “high polyreactivity”; that for “QVQLVESGGGLVQAGGSLRLSCAASGYILQINAMGWYRQAPGKERELVSAISISGGNTYYADSVKGRFTISRDNAKNNVYLQMNSLKPEDTAVYYCAAYRYYSYLVRYGLLLAYYYWGQGTQVTVSS”, “low polyreactivity”.
As to “QVQLVESGGGLVQAGGSLRLSCAASGYILTHYAMGWYRQAPGKERELVAAITRVGNTNYADSVKGRFTISRDNAKNTVYLQMNSLKPEDTAVYYCAVTYNGDSSWPGDYWGQGTQVTVSS”, the “polyreactivity (PSR sort gate)” value is “low polyreactivity”.
The result for “QVQLVESGGGLVQAGGSLRLSCAASGYISFGYAMGWYRQAPGKEREFVAAISVGGGTTYYADSVKGRFTISRDNAKNTVYLQMNSLKPEDTAVYYCAARSYSYAPRRGYWGQGTQVTVSS” reads “high polyreactivity”; that for “QVQLVESGGGLVQAGGSLRLSCAASGYMFGGYAMGWYRQAPGKAREFVAAISDISGSTYYADSVKGRFTISRDNAKNTVYLQMNSLKPEDTAVYYGGHTSTADEDYWGQGTQVTVSS”, “low polyreactivity”.
Take “QVQLVESGGGLVQAGGSLRLSCAASGYMGWYRQAPGKERELVATISGSGGSPYYADSVKGRFSISRDNAKNTVYLQMNSLKPEDTARYYCTTEIWGVNRSGYDYWGQGTQVTVSS”: the “polyreactivity (PSR sort gate)” value is recorded as “low polyreactivity”.
With “QVQLVESGGGLVQAGGSLRLSCAASGYNFDGYAMGWYRQAPGKERELVAAINSGGGTYYADSVKGRFTISRDNAKNTVYLQMNSLKPEDTAVYYCSKYTYDYWGQGTQVTVSS”, the “polyreactivity (PSR sort gate)” value is “low polyreactivity”.
